From paper PMC10619557, “Crystal Structures of 6-Phosphogluconate Dehydrogenase from Corynebacterium glutamicum” (Journal of Microbiology and Biotechnology, 2023)

Molecular target: 6-phosphogluconate dehydrogenase from Corynebacterium glutamicum ATCC 13032 (Corynebacterium glutamicum ATCC 13032)
Test: SEC; analytical, Superdex 200 Increase 10/300 GL; 1 ml at 1 mg/ml; 40 mM Tris-HCl pH 8.0, 150 mM NaCl; mass from a calibration curve

stoichiometry N: 2
Substance: 6-phosphogluconate dehydrogenase from Corynebacterium glutamicum ATCC 13032 (enzyme)
